Assay [1] concerns the target Human HSP90β (human) (UniProt P08238). Description: cryo-EM structure.
Assay [2] has the same target. As to the kind of experiment: cryo-EM structure. This is another data set of the same source.

Like-named read-outs stand apart in the source and are kept apart here.

Human HSP90β, P08238 3-724 (natural protein; other documents disagree on this pair), sequence (P08238 3-724): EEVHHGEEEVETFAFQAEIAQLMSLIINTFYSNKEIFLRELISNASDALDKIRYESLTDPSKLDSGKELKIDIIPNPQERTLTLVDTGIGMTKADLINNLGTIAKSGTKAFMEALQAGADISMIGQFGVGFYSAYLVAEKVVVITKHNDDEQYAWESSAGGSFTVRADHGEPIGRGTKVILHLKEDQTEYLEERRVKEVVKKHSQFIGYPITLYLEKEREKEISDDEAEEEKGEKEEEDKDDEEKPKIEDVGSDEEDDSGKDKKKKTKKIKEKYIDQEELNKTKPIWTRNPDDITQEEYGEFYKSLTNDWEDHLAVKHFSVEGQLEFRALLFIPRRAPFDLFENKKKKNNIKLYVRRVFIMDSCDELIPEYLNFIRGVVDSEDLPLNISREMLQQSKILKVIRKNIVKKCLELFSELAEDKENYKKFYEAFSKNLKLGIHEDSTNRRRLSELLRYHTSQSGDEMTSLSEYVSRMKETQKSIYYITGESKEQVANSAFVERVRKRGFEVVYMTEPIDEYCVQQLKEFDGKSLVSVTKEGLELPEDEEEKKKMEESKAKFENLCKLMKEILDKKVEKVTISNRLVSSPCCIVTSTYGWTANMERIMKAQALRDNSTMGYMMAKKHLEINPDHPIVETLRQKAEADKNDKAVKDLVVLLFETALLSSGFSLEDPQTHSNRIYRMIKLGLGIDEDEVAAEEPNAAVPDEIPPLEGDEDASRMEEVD

Consider “Human HSP90β, P08238 3-724 (natural protein; other documents disagree on this pair)”, for which the stoichiometry N in the assay with Human HSP90β (human) [1] and with Human HSP90β (human) [2] was 2 in each case.

By stoichiometry N is commonly meant a count of units in the complex or per binding partner.

The record behind these values is publication doi:10.1101/2025.10.17.682828.
